According to the supplement of paper PMC10724198:
± gives the standard deviation of the averaged measurements.

Columns and labels:
[1] = system: Saccharomyces cerevisiae; experiment: protein stability index of tFT-peptide fusion (C-terminal peptide) (PSI (0-1 scale)); higher = more stable (slower turnover)
Experimental: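 MPS profiling in S. cerevisiae of the tFT-X12 degron library: putative degron peptides plus stable controls, 12 aa, fused to the C-terminus of a sfGFP-mCherry timer. Cells are FACS-sorted into 8 mCherry/sfGFP bins and deep-sequenced. PSI runs from 0 (unstable) to 1 (stable). Backgrounds are wild type, das1Δ and doa10Δ at 30 °C, and wild type, das1Δ, cdc34-1 and cdc53-1 at 37 °C; 2-3 technical replicates each.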

[2] = system: Saccharomyces cerevisiae; experiment: as above; conditions: genetic background: wild type; temperature: 30 C
[3] = genetic background: cdc34-1, temperature: 37 C
[4] = genetic background: cdc53-1, temperature: 37 C
[5] = genetic background: das1 deletion, temperature: 30 C
[6] = genetic background: das1 deletion, temperature: 37 C
[7] = genetic background: doa10 deletion, temperature: 30 C
[8] = genetic background: wild type, temperature: 30 C
[9] = genetic background: wild type, temperature: 37 C
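Note: PSI is a weighted mean of sequencing reads over stability bins, variants kept only with over 10 reads, mCherry proximal and sfGFP distal, peptide attached via GGGS linker.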

| Sequence | protein stability index [1, 3] | protein stability index [1, 4] | protein stability index [1, 5] | protein stability index [1, 6] | protein stability index [1, 7] | protein stability index [1, 8] | protein stability index [1, 9] | protein stability index [2] |
| --- | --- | --- | --- | --- | --- | --- | --- | --- |
| LSITQLFCLCAV | 0.317 ± 0.0048 | 0.337 ± 0.02 | 0.289 ± 0.031 | 0.4 ± 0.0069 | 0.2322 ± 0.0017 | 0.272 ± 0.016 | 0.356 ± 0.006 | 0.3742 ± 0.0031 |
| VCFLLLLPALLI | 0.466 ± 0.031 | 0.465 ± 0.014 | 0.398 ± 0.026 | 0.516 ± 0.0089 | 0.422 ± 0.0094 | 0.393 ± 0.016 | 0.512 ± 0.027 | 0.432 ± 0.053 |
| HEVHATVPNQIM | 0.688 ± 0.026 | 0.7487 ± 0.0024 | 0.638 ± 0.01 | 0.736 ± 0.0095 | 0.649 ± 0.018 | 0.653 ± 0.02 | 0.7114 ± 0.0045 | 0.697 ± 0.011 |
| ISLSCRSFFCLS | 0.61 ± 0.033 | 0.68 ± 0.011 | 0.574 ± 0.018 | 0.6691 ± 0.0065 | 0.446 ± 0.015 | 0.462 ± 0.019 | 0.5854 ± 0.0049 | 0.507 ± 0.027 |
| LSALMVLSFILV | 0.377 ± 0.016 | 0.4332 ± 0.0036 | 0.379 ± 0.024 | 0.4573 ± 0.00059 | 0.343 ± 0.011 | 0.355 ± 0.028 | 0.428 ± 0.0022 | 0.418 ± 0.033 |
| FFTLLLFLFFSV | 0.352 ± 0.035 | 0.278 ± 0.032 | 0.3 ± 0.026 | 0.435 ± 0.039 | 0.395 ± 0.0048 | 0.293 ± 0.03 | 0.411 ± 0.022 | 0.321 ± 0.0086 |
| LVFRIRNANRLV | 0.615 ± 0.046 | 0.7144 ± 0.0041 | 0.6418 ± 0.0024 | 0.728 ± 0.024 | 0.127 ± 0.015 | 0.164 ± 0.026 | 0.314 ± 0.03 | 0.309 ± 0.014 |
| PLPHTPAPPPFP | 0.6774 ± 0.0011 | 0.728 ± 0.0098 | 0.6492 ± 0.0043 | 0.721 ± 0.036 | 0.674 ± 0.034 | 0.676 ± 0.033 | 0.6992 ± 0.0033 | 0.508 ± 0.043 |
| VVTICVASWSGL | 0.521 ± 0.038 | 0.573 ± 0.011 | 0.352 ± 0.017 | 0.54018 ± 4.7e-05 | 0.362 ± 0.029 | 0.36 ± 0.027 | 0.532 ± 0.012 | 0.42 ± 0.0091 |
| LTPKRLTVCRLC | 0.553 ± 0.066 | 0.758 ± 0.012 | 0.688 ± 0.01 | 0.7862 ± 0.0057 | 0.306 ± 0.019 | 0.318 ± 0.008 | 0.628 ± 0.066 | 0.512 ± 0.079 |
| FTYFFFVRVLLV | 0.11 ± 0.045 | 0.14 ± 0.01 | 0.156 ± 0.031 | 0.2772 ± 0.00032 | 0.11 ± 0.0067 | 0.118 ± 0.0091 | 0.129 ± 0.0084 | 0.187 ± 0.0053 |
| HRCLFPLEYLLI | 0.613 ± 0.055 | 0.72 ± 0.015 | 0.551 ± 0.021 | 0.701 ± 0.026 | 0.303 ± 0.022 | 0.344 ± 0.017 | 0.503 ± 0.018 | 0.473 ± 0.052 |
| VCRVAAWLGWFV | 0.522 ± 0.016 | 0.708 ± 0.024 | 0.637 ± 0.019 | 0.7292 ± 0.00075 | 0.0897 ± 0.012 | 0.0909 ± 0.024 | 0.1636 ± 0.0013 | 0.175 ± 0.025 |
| PSFVEVAFAVCC | 0.569 ± 0.037 | 0.555 ± 0.039 | 0.347 ± 0.045 | 0.5575 ± 0.0034 | 0.339 ± 0.03 | 0.366 ± 0.0077 | 0.541 ± 0.019 | 0.451 ± 0.058 |
| PLSRLLPLYFLL | 0.405 ± 0.015 | 0.547 ± 0.00061 | 0.548 ± 0.017 | 0.66444 ± 0.00057 | 0.0797 ± 0.0046 | 0.0647 ± 0.0097 | 0.0945 ± 0.018 | 0.0966 ± 0.0083 |
| VWVLLCKYVILL | 0.228 ± 0.034 | 0.3521 ± 0.0031 | 0.237 ± 0.036 | 0.457 ± 0.0046 | 0.139 ± 0.021 | 0.145 ± 0.014 | 0.268 ± 0.023 | 0.218 ± 0.0091 |
| RYSVIRWMLIVC | 0.0413 ± 0.012 | 0.0475 ± 0.01 | 0.0885 ± 0.021 | 0.13 ± 0.0059 | 0.0358 ± 0.01 | 0.0321 ± 0.0053 | 0.0441 ± 0.0061 | 0.051 ± 0.013 |
| GCIFGNVVFVRV | 0.602 ± 0.031 | 0.6098 ± 0.0023 | 0.424 ± 0.03 | 0.6335 ± 0.0023 | 0.433 ± 0.02 | 0.433 ± 0.022 | 0.611 ± 0.0075 | 0.472 ± 0.062 |
| LVCFFLFSLFYL | 0.433 ± 0.02 | 0.479 ± 0.018 | 0.335 ± 0.028 | 0.5331 ± 0.0039 | 0.357 ± 0.015 | 0.358 ± 0.029 | 0.5098 ± 0.0013 | 0.386 ± 0.037 |
| MRMEGPLALSVR | 0.5519 ± 0.005 | 0.558 ± 0.016 | 0.395 ± 0.028 | 0.558 ± 0.0087 | 0.353 ± 0.019 | 0.403 ± 0.017 | 0.551 ± 0.006 | 0.48 ± 0.011 |
